Test: soluble on expression in E. coli; label from the status in PepcDB or PDB records

Sequence	soluble on expression in E. coli
MQGAQTSEDNLGSQSQPGPCGYIYFYPLATYPLREVATLGTGYAGHRCLTVPLLCGITVEPGFSINVKALHRRPDPNCGLLRATSYHRDIYVFHNAHMVPPIFEGPGLEALCGETREVFGYDAYSALPRESSKPGDFFPEGLDPSAYLGAVAITEAFKERLYSGNLVAIPSLKQEVAVGQSASVRVPLYDKEVFPEGVPQLRQFYNSDLSRCMHEALYTGLAQALRVRRVGKLVELLEKQSLQDQAKVAKVAPLKEFPASTISHPDSGALMIVDSAACELAVSYAPAMLEASHETPASLNYDSWPLFADCEGPEARVAALHRYNASLAPHVSTQIFATNSVLYVSGVSKSTGQGKESLFNSFYMTHGLGTLQEGTWDPCRRPCFSGWGGPDVTGTNGPGNYAVEHLVYAASFSPNLLARYAYYLQFCQGQKSSLTPVPETGSYVAGAAASPMCSLCEGRAPAVCLNTLFFRLRDRFPPVMSTQRRDPYVISGASGSYNETDFLGNFLNFIDKEDDGQRPDDEPRYTYWQLNQNLLERLSRLGIDAEGKLEKEPHGPRDFVKMFKDVDAAVDAEVVQFMNSMAKNNITYKDLVKSCYHVMQYSCNPFAQPACPIFTQLFYRSLLTILQDISLPICMCYENDNPGLGQSPPEWLKGHYQTLCTNFRSLAIDKGVLTAKEAKVVHGEPTCDLPDLDAALQGRVYGRRLPVRMSKVLMLCPRNIKIKNRVVFTGENAALQNSFIKSTTRRENYIINGPYMKFLNTYHKTLFPDTKLSSLYLWHNFSRRRSVPVPSGASAEEYSDLALFVDGGSRAHEESNVIDVVPGNLVTYAKQRLNNAILKACGQTQFYISLIQGLVPRTQSVPARDYPHVLGTRAVESAAAYAEATSSLTATTVVCAATDCLSQVCKARPVVTLPVTINKYTGVNGNNQIFQAGNLGYFMGRGVDRNLLQAPGAGLRKQAGGSSMRKKFVFATPTLGLTVKRRTQAATTYEIENIRAGLEAIISQKQEEDCVFDVVCNLVDAMGEACASLTRDDAEYLLGRFSVLADSVLETLATIASSGIEWTAEAARDFLEGVWGGPGAAQDNFISVAEPVSTASQASAGLLLGGGGQGSGGRRKRRLATVLPGLEV	soluble
MDKALTNHVIILSFDCLSALDFPILQKLPHFQSLIKKGTVVEKVEPIYPSVTYPSHSTIVTGNYPNKHGVVSNTLLQPGRESPDWHWYRKSIKGTTLYDEARKANLTTAALLWPVTGRANIDYNLPEIFPNRPWQNQVLVSLFSGSPLYQLDLNRRFGHIRNGLSQPELDDFVLASAVHTIQTKKPNIMFVHFTDLDTQRHYHGFESNETIAAIQRHDERLGKIIQALKESDLYEESTIIALGDHSALSENKSIQLNVLFHQRGLISLNKKRKLVDWKAYCQSCDGSAYVYVKDKNDTDTIREVQLLLEELLQNKQNGIEFILHDEAAKDCGADGNCLFMLEAREGYYFTENYTGDFIKEITEKDVTLSKKYTFGTHGYSPTKPNYETIFIAAGKGIKSGVTVPYMRLIDEGPTIARLLGLHLGETDGAIVEDLLQLLEHHHHHH	soluble
QVKEVQIRFEKDALHNIMEMQYKNYQLSKENIDMVNQKYHDLKHQINILKTQSYTGKSTNYLEKMEREIRVYETQNKTGNQILDAVLTNKAMICQNKEIELKFIVDGEALSFMDDMDVSALFGNMLDNAIESAEKQQEKQKRLIWLYVTREKQFVRIRTENYCDEKIHFKNGMPVTTKKDRRLHGYGMKSIKSTVEKYHGSVVAAQENNWFELKILLPAGR	not soluble
MVVGWHRPTRLHIDTQAITENVQKECQRLPEGTALFAVVKANGYGHGAVESAKAAKKGGATGFCVALLDEAIELREAGVQDPILILSVVDLAYVPLLIQYDLSVTVATQEWLEAALQQLTPESNTPLRVHLKVDTGMGRIGFLTPEETKQAVRFVQSHKEFLWEGIFTHFSTADEIDTSYFEKQAGRFKAVLAVLEELPRYVHVSNSATALWHPDVPGNMIRYGVAMYGLNPSGNKLAPSYALKPALRLTSELIHVKRLAAGEGIGYGETYVTEAEEWIGTVPIGYADGWLRHLQGFTVLVNGKRCEIVGRVCMDQCMIRLAEEVPVGPVVTLVGKDGNEENTLQMVAEKLETIHYEVACTFSQRIPREYN	soluble
MAYSNDEIVKGIDGIYSNENPNSNIKYVINESRFNASQLCKTKKGIKQMSDEWLLEDGGKRILEAVNGDRKLQKDIIRVLNKGQVEKVLSRVGKDGKVTTYRLNSNGEIIGFWP	not soluble
MNLFEYKLSVVRQVMDKYEVAEEAKFISGLSKGSMVNALSRKKKLPNKEAKFTRYVIYTVDVERIIDMMEEPYRTVIKKRYYDASLDTVKKDFGLQNKREAYFLVKKSVNKFYDLLENYWK	not soluble
MFSKTVVVLLMVVPAISLAQPASPLVLKKSHGAFCHLCEDLIKDGKEAGDVALDVWLDEEIGSRCKDFGVLASECFKELKVAEHDIWEAIDQEIPEDKTCKEAKLC	not soluble
GPGSMKKNLLADRTARVFEEARESATRLAAVSDTVSRAAVPHGIRHLFYTADTQREQRQCLAKVFAATCPSLHPLRSGEGEAGDGESSDPTSAAAAAHQDYILLILPDCAKVEDFISHVLLPGQADALRILGSQDDARCTDYLVERLDHTVQVQQQQRRRAETRKFIQRTVRKAEALDGDVGYPSSAPQPSPLFRRLEREVNATAAPIHAAASESQAPAPTSLATSPAVCAADSLTASSSPLRPPRRCFITCNCNNVRGLDLPHLTHVVILAQPTTALEYAHWCGRVGRFGRPGVSVTLMARSATRHMHQFCDSLGIAFRVEKRHAEVDVNAERWLSGADAE	soluble
MSLSSPNLSFYYNECERFESFLKNHHLHLESFHPYLEKAFFEMVLNGGKRFRPKLFLAVLCALVGQKDYSNQQTEYFKIALSIECLHTYSLIHDDLPCMDNAALRRNHPTLHAKYDETTAVLIGDALNTYSFELLSNALLESHIIVELIKILSANGGIKGMILGQALDCYFENTPLNLEQLTFLHEHKTAKLISASLIMGLVASGIKDEELFKWLQAFGLKMGLCFQVLDDIIDVTQDEEESGKTTHLDSAKNSFVNLLGLERANNYAQTLKTEVLNDLDALKPAYPLLQENLNALLNTLFKGEGHHHHHH	soluble
AVAQQLRAESDFEQLPDDVAISANIADIEEKRGFTSHFVFVIEVKTKGGSKYLIYRRYRQFHALQSKLEERFGPDSKSSALACTLPTLPAKVYVGVKQEIAEMRIPALNAYMKSLLSLPVWVLMDEDVRIFFYQSPYDSEQVP	soluble
MRQHKTKYLHQYELQALLNELNLNNEVNWDYFILLIAKTGIRFAEALGVTPDDFDFAHQTLSISKTWDYKSNKSDFAPTKNNSSVRKVPLDWQTVIQFSQLTKKLPEDQPIFVQAKVYNDTVNHYLERLCKHASIPVISVHGLRHTHASLLLYAGVSIASVARRLGHSNMTTTQQTYLHIIQELENQDNDKVMKHLASLILEHHHHHH	soluble
SGSCCSCPDKDTVPDNHRNKFKVINVDDDGNELGSGIMELTDTELILYTRKRDSVKWHYLCLRRYGYDSNLFSFESGRRCQTGQGIFAFKCARAEELFNMLQEIMQNNSINVVEEPVVERNNHQTELEVPRTPRTPTTPGFAAQNLPNGYPRYPSFGDASSHPSSRHPSVGSARLPSVGEESTHPLLVAEEQVHTYVNTTGVQEERKNRTSVHVPLEARVSNAESSTPKEEPSSIEDRDPQILLEPEGVKFVLGPTPVQKQLMEKEKLEQLGRDQVSGSGANNTEWDTGYDSDERRDAPSVNKLVYENINGLSIPSASGVRRGRLTSTSTSDTQNINNSAQRRTALLNYENLPSLPPVWEARKLSRDEDDNLGPKTPSLNGYHNNLDPMHNYVNTENVTVPASAHKIEYSRRRDCTPTVFNFDIRRPSLEHRQLNYIQVDLEGGSDSDNPQTPKTPTTPLPQTPTRRTELYAVIDIERTAAMSNLQKALPRDDGTSRKTRHNSTDLPMLAWK	soluble
MALSKVKLNDTLNKDQLLSSSKYTIQRSTGDSIDTPNYDVQKHINKLCGMLLITEDANHKFTGLIGMLYAMSRLGREDTIKILRDAGYHVKANGVDVTTHRQDINGKEMKFEVLTLASLTTEIQINIEIESRKSYKKMLKEMGEVAPEYRHDSPDCGMIILCIAALVITKLAAGDRSGLTAVIRRANNVLKNEMKRYKGLLPKDIANSFYEVFEKHPHFIDVFVHFGIAQSSTRGGSRVEGIFAGLFMNAYGAGQVMLRWGVLAKSVKNIMLGHASVQAEMEQVVEVYEYAQKLGGEAGFYHILNNPKASLLSLTQFPHFSSVVLGNAAGLGIMGEYRGTPRNQDLYDAAKAYAEQLKENGVINYSVLDLTAEELEAIKHQLNPKDNDVEL	soluble

Reference: the DeepSol protein solubility set
